Laboratory results reported in patent US20200024322A1 (Eli Lilly, published 2020).
Numbered stars: 1 amine (or outer) side, 2 acyl side, 3 side chain; on linkers, the order of the positions; unused ones are H or OH. Square brackets hold non-standard residues; d marks the D form. Side chains are listed from the residue outwards. Ends that are not written are not given here. * marks the point of attachment. C20 diacid = O=C(O)CCCCCCCCCCCCCCCCCCC(=O)*; γGlu = O=C(O)[C@H](CCC(=O)[*:2])N[*:1]; AEEA = NCCOCCOCC(=O)O; Aib = CC(C)(N)C(=O)O

T1: human GIP receptor (human, UniProt P48546 22-466)
T1 construct: whole, on cells; Used as crude membranes of stably transfected CHO cells; also called hGIPR
T1 sequence (looked up): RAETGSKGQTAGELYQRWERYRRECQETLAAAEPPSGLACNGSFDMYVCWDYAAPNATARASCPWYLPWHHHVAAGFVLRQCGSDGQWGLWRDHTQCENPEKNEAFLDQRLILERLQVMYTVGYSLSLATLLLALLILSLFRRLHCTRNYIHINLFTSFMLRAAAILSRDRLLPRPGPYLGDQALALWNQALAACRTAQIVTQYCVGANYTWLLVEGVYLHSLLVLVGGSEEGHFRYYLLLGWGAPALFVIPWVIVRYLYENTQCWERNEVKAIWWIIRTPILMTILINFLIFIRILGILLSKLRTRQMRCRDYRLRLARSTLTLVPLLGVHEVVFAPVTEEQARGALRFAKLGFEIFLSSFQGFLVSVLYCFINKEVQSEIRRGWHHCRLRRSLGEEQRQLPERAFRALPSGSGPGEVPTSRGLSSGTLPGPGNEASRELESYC


How the values were obtained:
[1] = molecular target: T1, human GIP receptor; test: SPA, [125I]-GIP displacement, hGIPR membranes
[2] = molecular target: T2, human glucagon receptor (human, UniProt P47871 26-477); test: SPA, [125I]-Gcg displacement, hGcgR membranes
T2 construct: whole, on cells; Used as crude membranes of stably transfected HEK293 cells; also called hGcgR; hGLcgR
T2 sequence (P47871 26-477): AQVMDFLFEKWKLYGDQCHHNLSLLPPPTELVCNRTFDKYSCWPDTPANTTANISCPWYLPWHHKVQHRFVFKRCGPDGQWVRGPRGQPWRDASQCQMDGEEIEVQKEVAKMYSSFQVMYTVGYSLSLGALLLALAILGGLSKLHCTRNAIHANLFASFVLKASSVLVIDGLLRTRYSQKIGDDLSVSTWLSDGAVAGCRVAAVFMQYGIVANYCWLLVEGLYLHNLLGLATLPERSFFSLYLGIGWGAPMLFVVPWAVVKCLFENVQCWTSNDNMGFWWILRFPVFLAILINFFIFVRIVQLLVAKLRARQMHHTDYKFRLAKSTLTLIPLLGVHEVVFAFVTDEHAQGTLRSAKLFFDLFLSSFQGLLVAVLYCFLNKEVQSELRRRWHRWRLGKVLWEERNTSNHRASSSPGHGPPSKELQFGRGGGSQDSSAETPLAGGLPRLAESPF

[3] = molecular target: T3, human GLP-1 receptor (human, UniProt P43220 24-463); test: SPA, [125I]-GLP-1 displacement, hGLP-1R membranes
T3 construct: whole, on cells; Used as crude membranes of stably transfected HEK293 cells; also called hGLP1R; hGLP-1R

Row | Binder | Ki [1] [nM] | Ki [2] [nM] | Ki [3] [nM]
1 | Y[Aib]EGTFTSDYSILLDSK([AEEA-AEEA-γGlu-C20 diacid])AQ[Aib]AFIEYLLEGGPSSGAPPPS-NH2 (N-terminus assumed; SMILES CC[C@H](C)[C@H](NC(=O)[C@H](Cc1ccccc1)NC(=O)[C@H](C)NC(=O)C(C)(C)NC(=O)[C@H](CCC(N)=O)NC(=O)[C@H](C)NC(=O)[C@H](CCCCNC(=O)COCCOCCNC(=O)COCCOCCNC(=O)CC[C@H](NC(=O)CCCCCCCCCCCCCCCCCCC(=O)O)C(=O)O)NC(=O)[C@H](CO)NC(=O)[C@H](CC(=O)O)NC(=O)[C@H](CC(C)C)NC(=O)[C@H](CC(C)C)NC(=O)[C@@H](NC(=O)[C@H](CO)NC(=O)[C@H](Cc1ccc(O)cc1)NC(=O)[C@H](CC(=O)O)NC(=O)[C@H](CO)NC(=O)[C@@H](NC(=O)[C@H](Cc1ccccc1)NC(=O)[C@@H](NC(=O)CNC(=O)[C@H](CCC(=O)O)NC(=O)C(C)(C)NC(=O)[C@@H](N)Cc1ccc(O)cc1)[C@@H](C)O)[C@@H](C)O)[C@@H](C)CC)C(=O)N[C@@H](CCC(=O)O)C(=O)N[C@@H](Cc1ccc(O)cc1)C(=O)N[C@@H](CC(C)C)C(=O)N[C@@H](CC(C)C)C(=O)N[C@@H](CCC(=O)O)C(=O)NCC(=O)NCC(=O)N1CCC[C@H]1C(=O)N[C@@H](CO)C(=O)N[C@@H](CO)C(=O)NCC(=O)N[C@@H](C)C(=O)N1CCC[C@H]1C(=O)N1CCC[C@H]1C(=O)N1CCC[C@H]1C(=O)N[C@@H](CO)C(N)=O) [Example 7] | 0.252 | 198 | 43.3
2 | Y[Aib]EGTFTSDYSILK([AEEA-AEEA-γGlu-C20 diacid])DKIAQ[Aib]AFIEYLIEGGPSSGAPPPS-NH2 (N-terminus assumed; SMILES CC[C@H](C)[C@H](NC(=O)[C@H](CCCCN)NC(=O)[C@H](CC(=O)O)NC(=O)[C@H](CCCCNC(=O)COCCOCCNC(=O)COCCOCCNC(=O)CC[C@H](NC(=O)CCCCCCCCCCCCCCCCCCC(=O)O)C(=O)O)NC(=O)[C@H](CC(C)C)NC(=O)[C@@H](NC(=O)[C@H](CO)NC(=O)[C@H](Cc1ccc(O)cc1)NC(=O)[C@H](CC(=O)O)NC(=O)[C@H](CO)NC(=O)[C@@H](NC(=O)[C@H](Cc1ccccc1)NC(=O)[C@@H](NC(=O)CNC(=O)[C@H](CCC(=O)O)NC(=O)C(C)(C)NC(=O)[C@@H](N)Cc1ccc(O)cc1)[C@@H](C)O)[C@@H](C)O)[C@@H](C)CC)C(=O)N[C@@H](C)C(=O)N[C@@H](CCC(N)=O)C(=O)NC(C)(C)C(=O)N[C@@H](C)C(=O)N[C@@H](Cc1ccccc1)C(=O)N[C@H](C(=O)N[C@@H](CCC(=O)O)C(=O)N[C@@H](Cc1ccc(O)cc1)C(=O)N[C@@H](CC(C)C)C(=O)N[C@H](C(=O)N[C@@H](CCC(=O)O)C(=O)NCC(=O)NCC(=O)N1CCC[C@H]1C(=O)N[C@@H](CO)C(=O)N[C@@H](CO)C(=O)NCC(=O)N[C@@H](C)C(=O)N1CCC[C@H]1C(=O)N1CCC[C@H]1C(=O)N1CCC[C@H]1C(=O)N[C@@H](CO)C(N)=O)[C@@H](C)CC)[C@@H](C)CC) [Example 27] | 0.103 | 315 | 3.68
3 | Y[Aib]EGTFTSDYSK([AEEA-AEEA-γGlu-C20 diacid])LLDKIAQ[Aib]AFIEYLIEGGPSSGAPPPS-NH2 (N-terminus assumed; SMILES CC[C@H](C)[C@H](NC(=O)[C@H](CCCCN)NC(=O)[C@H](CC(=O)O)NC(=O)[C@H](CC(C)C)NC(=O)[C@H](CC(C)C)NC(=O)[C@H](CCCCNC(=O)COCCOCCNC(=O)COCCOCCNC(=O)CC[C@H](NC(=O)CCCCCCCCCCCCCCCCCCC(=O)O)C(=O)O)NC(=O)[C@H](CO)NC(=O)[C@H](Cc1ccc(O)cc1)NC(=O)[C@H](CC(=O)O)NC(=O)[C@H](CO)NC(=O)[C@@H](NC(=O)[C@H](Cc1ccccc1)NC(=O)[C@@H](NC(=O)CNC(=O)[C@H](CCC(=O)O)NC(=O)C(C)(C)NC(=O)[C@@H](N)Cc1ccc(O)cc1)[C@@H](C)O)[C@@H](C)O)C(=O)N[C@@H](C)C(=O)N[C@@H](CCC(N)=O)C(=O)NC(C)(C)C(=O)N[C@@H](C)C(=O)N[C@@H](Cc1ccccc1)C(=O)N[C@H](C(=O)N[C@@H](CCC(=O)O)C(=O)N[C@@H](Cc1ccc(O)cc1)C(=O)N[C@@H](CC(C)C)C(=O)N[C@H](C(=O)N[C@@H](CCC(=O)O)C(=O)NCC(=O)NCC(=O)N1CCC[C@H]1C(=O)N[C@@H](CO)C(=O)N[C@@H](CO)C(=O)NCC(=O)N[C@@H](C)C(=O)N1CCC[C@H]1C(=O)N1CCC[C@H]1C(=O)N1CCC[C@H]1C(=O)N[C@@H](CO)C(N)=O)[C@@H](C)CC)[C@@H](C)CC) [Example 25] | 0.179 | 81.1 | 4.8
4 | Y[Aib]EGTFTSDYSILLDSK([AEEA-AEEA-γGlu-C20 diacid])AQ[Aib]AFIEYLIEGGPSSGAPPPS-NH2 (N-terminus assumed; SMILES CC[C@H](C)[C@H](NC(=O)[C@H](CC(C)C)NC(=O)[C@H](Cc1ccc(O)cc1)NC(=O)[C@H](CCC(=O)O)NC(=O)[C@@H](NC(=O)[C@H](Cc1ccccc1)NC(=O)[C@H](C)NC(=O)C(C)(C)NC(=O)[C@H](CCC(N)=O)NC(=O)[C@H](C)NC(=O)[C@H](CCCCNC(=O)COCCOCCNC(=O)COCCOCCNC(=O)CC[C@H](NC(=O)CCCCCCCCCCCCCCCCCCC(=O)O)C(=O)O)NC(=O)[C@H](CO)NC(=O)[C@H](CC(=O)O)NC(=O)[C@H](CC(C)C)NC(=O)[C@H](CC(C)C)NC(=O)[C@@H](NC(=O)[C@H](CO)NC(=O)[C@H](Cc1ccc(O)cc1)NC(=O)[C@H](CC(=O)O)NC(=O)[C@H](CO)NC(=O)[C@@H](NC(=O)[C@H](Cc1ccccc1)NC(=O)[C@@H](NC(=O)CNC(=O)[C@H](CCC(=O)O)NC(=O)C(C)(C)NC(=O)[C@@H](N)Cc1ccc(O)cc1)[C@@H](C)O)[C@@H](C)O)[C@@H](C)CC)[C@@H](C)CC)C(=O)N[C@@H](CCC(=O)O)C(=O)NCC(=O)NCC(=O)N1CCC[C@H]1C(=O)N[C@@H](CO)C(=O)N[C@@H](CO)C(=O)NCC(=O)N[C@@H](C)C(=O)N1CCC[C@H]1C(=O)N1CCC[C@H]1C(=O)N1CCC[C@H]1C(=O)N[C@@H](CO)C(N)=O) [Example 9] | 0.127 | 375 | 14.9
5 | Y[Aib]EGTFTSDYK([AEEA-AEEA-γGlu-C20 diacid])ILLDKIAQ[Aib]AFIEYLIEGGPSSGAPPPS-NH2 (N-terminus assumed; SMILES CC[C@H](C)[C@H](NC(=O)[C@H](CCCCN)NC(=O)[C@H](CC(=O)O)NC(=O)[C@H](CC(C)C)NC(=O)[C@H](CC(C)C)NC(=O)[C@@H](NC(=O)[C@H](CCCCNC(=O)COCCOCCNC(=O)COCCOCCNC(=O)CC[C@H](NC(=O)CCCCCCCCCCCCCCCCCCC(=O)O)C(=O)O)NC(=O)[C@H](Cc1ccc(O)cc1)NC(=O)[C@H](CC(=O)O)NC(=O)[C@H](CO)NC(=O)[C@@H](NC(=O)[C@H](Cc1ccccc1)NC(=O)[C@@H](NC(=O)CNC(=O)[C@H](CCC(=O)O)NC(=O)C(C)(C)NC(=O)[C@@H](N)Cc1ccc(O)cc1)[C@@H](C)O)[C@@H](C)O)[C@@H](C)CC)C(=O)N[C@@H](C)C(=O)N[C@@H](CCC(N)=O)C(=O)NC(C)(C)C(=O)N[C@@H](C)C(=O)N[C@@H](Cc1ccccc1)C(=O)N[C@H](C(=O)N[C@@H](CCC(=O)O)C(=O)N[C@@H](Cc1ccc(O)cc1)C(=O)N[C@@H](CC(C)C)C(=O)N[C@H](C(=O)N[C@@H](CCC(=O)O)C(=O)NCC(=O)NCC(=O)N1CCC[C@H]1C(=O)N[C@@H](CO)C(=O)N[C@@H](CO)C(=O)NCC(=O)N[C@@H](C)C(=O)N1CCC[C@H]1C(=O)N1CCC[C@H]1C(=O)N1CCC[C@H]1C(=O)N[C@@H](CO)C(N)=O)[C@@H](C)CC)[C@@H](C)CC) [Example 24] | 0.232 | 49.8 | 5.04
6 | YXEGTFTSDYSILLDKKAQXAFIEYLIEGGPSSGAPPPS (Aib2; K17((2-[2-(2-Amino-ethoxy)-ethoxy]-acetyl)2-(γ-Glu)-CO-(CH2)18-CO2H); Aib20; C-terminal NH2) [Example 8] | 0.0772 | 206 | 2.84
